Common to all, as to experiment: cell-based or functional assay
Assay [1] addresses OX40L expressed on mouse GM-BMDCs (mouse) (UniProt P43488).
Assay [2] deals with Jagged-1 expressed on mouse GM-BMDCs (mouse) (UniProt Q9QXX0).
In assay [3] the target is Notch 3 expressed on mouse T-cells (Tregs) (mouse) (UniProt Q61982).
Sequence of UniProt Q61982 (Q61982 40-2318): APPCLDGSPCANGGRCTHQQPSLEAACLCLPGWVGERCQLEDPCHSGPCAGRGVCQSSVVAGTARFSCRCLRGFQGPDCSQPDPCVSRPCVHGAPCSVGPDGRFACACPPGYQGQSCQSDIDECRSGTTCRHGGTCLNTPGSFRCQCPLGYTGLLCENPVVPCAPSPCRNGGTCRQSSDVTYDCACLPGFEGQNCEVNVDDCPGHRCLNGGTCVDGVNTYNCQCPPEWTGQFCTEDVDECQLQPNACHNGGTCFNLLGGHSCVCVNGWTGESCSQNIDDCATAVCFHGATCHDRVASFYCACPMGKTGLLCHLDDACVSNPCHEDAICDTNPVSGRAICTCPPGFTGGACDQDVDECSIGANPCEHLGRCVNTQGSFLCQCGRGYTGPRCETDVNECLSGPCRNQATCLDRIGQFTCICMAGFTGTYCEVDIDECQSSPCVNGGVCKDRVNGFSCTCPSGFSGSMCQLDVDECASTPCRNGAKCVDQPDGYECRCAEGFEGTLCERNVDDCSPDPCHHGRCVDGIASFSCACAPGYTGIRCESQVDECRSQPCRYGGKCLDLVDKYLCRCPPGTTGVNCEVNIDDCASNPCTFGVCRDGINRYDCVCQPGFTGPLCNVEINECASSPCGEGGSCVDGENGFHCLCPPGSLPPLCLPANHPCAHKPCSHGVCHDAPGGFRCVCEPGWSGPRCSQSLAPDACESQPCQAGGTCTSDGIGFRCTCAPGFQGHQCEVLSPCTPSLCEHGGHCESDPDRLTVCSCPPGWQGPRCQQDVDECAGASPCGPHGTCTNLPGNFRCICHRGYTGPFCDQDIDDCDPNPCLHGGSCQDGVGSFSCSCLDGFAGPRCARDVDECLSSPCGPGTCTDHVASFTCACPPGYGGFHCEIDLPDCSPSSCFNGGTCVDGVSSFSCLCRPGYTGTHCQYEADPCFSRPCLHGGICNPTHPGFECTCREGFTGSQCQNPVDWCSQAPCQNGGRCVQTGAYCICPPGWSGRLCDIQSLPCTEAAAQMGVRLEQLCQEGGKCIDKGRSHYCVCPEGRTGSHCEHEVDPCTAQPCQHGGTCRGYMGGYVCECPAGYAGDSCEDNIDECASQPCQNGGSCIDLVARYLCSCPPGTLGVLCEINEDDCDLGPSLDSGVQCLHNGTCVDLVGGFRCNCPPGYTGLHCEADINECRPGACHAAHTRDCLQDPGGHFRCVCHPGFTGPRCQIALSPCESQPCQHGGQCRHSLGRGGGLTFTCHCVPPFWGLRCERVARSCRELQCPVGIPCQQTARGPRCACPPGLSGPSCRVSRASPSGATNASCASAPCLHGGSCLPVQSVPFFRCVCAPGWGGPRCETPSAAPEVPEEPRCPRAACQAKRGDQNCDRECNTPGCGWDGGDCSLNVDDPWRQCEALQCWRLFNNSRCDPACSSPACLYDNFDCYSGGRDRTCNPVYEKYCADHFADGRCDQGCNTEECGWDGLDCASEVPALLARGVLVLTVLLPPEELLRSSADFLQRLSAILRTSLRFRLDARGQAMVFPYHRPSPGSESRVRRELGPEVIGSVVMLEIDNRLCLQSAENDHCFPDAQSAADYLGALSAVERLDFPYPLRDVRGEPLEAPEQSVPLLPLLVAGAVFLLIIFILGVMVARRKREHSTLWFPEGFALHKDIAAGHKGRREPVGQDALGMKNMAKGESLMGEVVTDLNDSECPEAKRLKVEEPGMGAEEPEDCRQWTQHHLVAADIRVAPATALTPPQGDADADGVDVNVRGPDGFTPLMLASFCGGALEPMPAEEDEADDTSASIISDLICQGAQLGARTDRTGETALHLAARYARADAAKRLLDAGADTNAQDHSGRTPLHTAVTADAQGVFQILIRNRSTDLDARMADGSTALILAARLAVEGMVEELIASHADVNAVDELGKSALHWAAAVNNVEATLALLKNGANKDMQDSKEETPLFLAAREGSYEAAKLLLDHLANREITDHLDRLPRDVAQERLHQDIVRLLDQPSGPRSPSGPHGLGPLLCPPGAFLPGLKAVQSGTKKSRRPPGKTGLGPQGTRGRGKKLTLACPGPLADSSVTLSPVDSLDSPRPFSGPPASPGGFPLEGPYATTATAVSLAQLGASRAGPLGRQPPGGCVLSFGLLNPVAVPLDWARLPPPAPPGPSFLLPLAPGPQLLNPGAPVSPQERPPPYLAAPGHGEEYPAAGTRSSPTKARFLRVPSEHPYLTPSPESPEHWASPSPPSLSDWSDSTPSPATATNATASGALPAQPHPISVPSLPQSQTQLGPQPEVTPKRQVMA

Sequence of UniProt P43488 (P43488 whole entry): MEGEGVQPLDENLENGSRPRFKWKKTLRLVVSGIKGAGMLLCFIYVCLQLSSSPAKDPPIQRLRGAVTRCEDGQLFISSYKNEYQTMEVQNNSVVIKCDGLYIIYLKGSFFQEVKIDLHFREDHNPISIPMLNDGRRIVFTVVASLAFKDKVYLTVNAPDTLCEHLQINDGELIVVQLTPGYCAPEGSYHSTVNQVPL
Sequence of UniProt Q9QXX0 (Q9QXX0 34-1218): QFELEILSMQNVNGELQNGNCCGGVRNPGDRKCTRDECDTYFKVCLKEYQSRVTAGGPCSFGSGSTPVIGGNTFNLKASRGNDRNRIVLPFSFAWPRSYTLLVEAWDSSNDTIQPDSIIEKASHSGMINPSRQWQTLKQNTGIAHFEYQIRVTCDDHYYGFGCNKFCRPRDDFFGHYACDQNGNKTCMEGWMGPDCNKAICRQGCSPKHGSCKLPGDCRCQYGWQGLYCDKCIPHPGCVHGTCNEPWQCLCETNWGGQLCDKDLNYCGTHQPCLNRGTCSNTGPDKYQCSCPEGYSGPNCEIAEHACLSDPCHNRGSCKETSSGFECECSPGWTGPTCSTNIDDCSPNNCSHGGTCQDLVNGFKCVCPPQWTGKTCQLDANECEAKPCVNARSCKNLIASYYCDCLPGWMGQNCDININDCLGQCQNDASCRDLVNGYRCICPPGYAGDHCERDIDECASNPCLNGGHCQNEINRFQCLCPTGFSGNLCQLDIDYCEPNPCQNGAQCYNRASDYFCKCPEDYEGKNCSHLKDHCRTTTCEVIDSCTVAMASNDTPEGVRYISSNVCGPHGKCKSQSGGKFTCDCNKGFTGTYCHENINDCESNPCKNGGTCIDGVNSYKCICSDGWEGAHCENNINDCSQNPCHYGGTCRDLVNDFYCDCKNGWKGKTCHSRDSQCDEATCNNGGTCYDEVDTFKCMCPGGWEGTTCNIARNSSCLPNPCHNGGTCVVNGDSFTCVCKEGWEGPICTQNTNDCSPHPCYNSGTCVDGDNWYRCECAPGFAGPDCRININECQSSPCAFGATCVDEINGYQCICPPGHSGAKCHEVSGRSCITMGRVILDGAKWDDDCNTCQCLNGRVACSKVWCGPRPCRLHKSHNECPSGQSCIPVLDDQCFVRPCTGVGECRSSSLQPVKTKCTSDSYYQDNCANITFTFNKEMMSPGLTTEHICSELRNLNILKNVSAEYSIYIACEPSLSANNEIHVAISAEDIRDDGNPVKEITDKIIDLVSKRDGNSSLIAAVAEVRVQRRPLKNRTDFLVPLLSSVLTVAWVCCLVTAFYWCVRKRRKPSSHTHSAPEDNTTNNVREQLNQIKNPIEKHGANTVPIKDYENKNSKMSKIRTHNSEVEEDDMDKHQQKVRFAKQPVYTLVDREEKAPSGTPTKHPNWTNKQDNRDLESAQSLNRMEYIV

Substance “Blocking antibody to OX40L (AF1236, R&D systems)” gave a Treg proliferation (%) in GM-BMDC/CD4+ T-cell co-culture with anti-OX40L-Hi (13.0% without antibody) in assay [1] of 3.7%.
“Blocking antibody to Jagged-1 (AF599, R&D systems)” showed a Treg proliferation (%) in GM-BMDC/CD4+ T-cell co-culture with anti-Jagged-1-Hi (13.0% without antibody) in assay [2] of 5.3%.
“Jagged-1 expressed on mouse GM-BMDCs (from UniProt Q9QXX0 34-1218) (ligand)”: the Proliferating Foxp3+ T cells positive for Notch 3 NICD in GM-BMDC/T-cell co-cultures (FACS) in assay [3] was found to be 97%.

These data come from patent US20180119100A1.
